According to PMC11838735, “Structural basis of collagen glucosyltransferase function and its serendipitous role in kojibiose synthesis” (Research Square, 2025):

B1: mimiviral collagen glucosyltransferase R699, wild type (pET28 construct) (enzyme)
chain: EQSNNDDNLLVLGIGISVHKTDGVLRFEKYCQAHNLQYMIVGEGKKWNGGNLESEAGGGQKINELLIALESIKDNKLIVVCDTYDLIPLSGPEEILRKYRFLTPDNKVVFSSELYCWPDASLVERYPKVDTKYKYLNSGAFMGYRDDIYEMIKNGVKDRDDDQLFFSIKFIETDKIVLDYKCELFQAMYRCNSDLVVHKNRIFNGYTNSYPVFAHGNGPAKKLLNHMEGYFMTEPIDGSSNTINTFKLDNEPKVFFALYVDSNDLSALKQFLGKVASIQYGNKVIYLYDRSDNEQNRKLIQISYPNYHTGVTKYVFDDFKKSDAQFYFLLEQNCIITKKDILHELIMQVKDNHRVISPMIGYEQNSTRTNFWGDIEDGYYKRSENYLDLAKHKVRGLWNVPYVYGVILMHESVVRNWDLSMVKYNDKDMDLCFSLRKHTIFMYMINNNNYGYMV
notes: R699 protein of Acanthamoeba polyphaga mimivirus, collagen galactosylhydroxylysyl glucosyltransferase; gene synthesized by Genscript; The vector has a PreScission site in place of the thrombin site, and no cleavage is described for this construct; also called R699WT; mimiviral R699

Key:
[1] = molecular target: human PLOD2b GLT-AC truncation (PLOD2b-GA) (human); test: SEC-MALS; the paper calls it SEC-DLS (size exclusion chromatography with dynamic light scattering); Superdex 200 10/300, miniDAWN TREOS and Optilab T-rEX detectors, 20 mM Tris pH 8, 200 mM NaCl, 3 mg ml^-1, 150 μl injected, 0.5 ml min^-1; molar mass across the peak; each protein analyzed once
[2] = molecular target: the molecule itself; test: as above

Molecule | stoichiometry N [1] | stoichiometry N [2]
human PLOD2b GLT-AC truncation (PLOD2b-GA) (domain or fragment) | 2 | –
B1 | – | 2
